Test results from patent US20240108766A1 (Bayer, published 2024).

T1: human LRRC15 expressed on cells (human, UniProt Q8TF66 22-581)
T1 construct: whole, on cells; On HEK293 cells transfected with LRRC15/ZsGreen1 (Retrogenix), on HT29 cells transfected with human LRRC15, and endogenous on Saos-2; also called LRRC15/ZsGreen1 transfected HEK293 cells; HT29-LRRC15
T1 sequence (looked up): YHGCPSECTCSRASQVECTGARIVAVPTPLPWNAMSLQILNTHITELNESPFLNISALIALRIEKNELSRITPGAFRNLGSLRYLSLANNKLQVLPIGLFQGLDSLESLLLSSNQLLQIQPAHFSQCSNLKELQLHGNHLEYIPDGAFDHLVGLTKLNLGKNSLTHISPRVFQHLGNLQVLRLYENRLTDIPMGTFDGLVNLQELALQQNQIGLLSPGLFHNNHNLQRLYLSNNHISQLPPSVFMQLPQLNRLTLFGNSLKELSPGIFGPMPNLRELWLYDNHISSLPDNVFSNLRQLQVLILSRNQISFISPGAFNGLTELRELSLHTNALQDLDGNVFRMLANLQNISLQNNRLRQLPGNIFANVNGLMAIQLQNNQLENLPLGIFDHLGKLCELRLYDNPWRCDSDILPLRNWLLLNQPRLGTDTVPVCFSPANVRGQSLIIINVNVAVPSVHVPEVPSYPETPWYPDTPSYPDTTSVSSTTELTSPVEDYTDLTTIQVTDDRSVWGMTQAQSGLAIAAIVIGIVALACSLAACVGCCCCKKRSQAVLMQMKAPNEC

T2: Ephrin type-B receptor 6 (EPHB6) on transfected HEK293 cells (human, UniProt O15197 32-1021)
T2 construct: whole, on cells; also called EPHB6/ZsGreen1
T2 sequence (looked up): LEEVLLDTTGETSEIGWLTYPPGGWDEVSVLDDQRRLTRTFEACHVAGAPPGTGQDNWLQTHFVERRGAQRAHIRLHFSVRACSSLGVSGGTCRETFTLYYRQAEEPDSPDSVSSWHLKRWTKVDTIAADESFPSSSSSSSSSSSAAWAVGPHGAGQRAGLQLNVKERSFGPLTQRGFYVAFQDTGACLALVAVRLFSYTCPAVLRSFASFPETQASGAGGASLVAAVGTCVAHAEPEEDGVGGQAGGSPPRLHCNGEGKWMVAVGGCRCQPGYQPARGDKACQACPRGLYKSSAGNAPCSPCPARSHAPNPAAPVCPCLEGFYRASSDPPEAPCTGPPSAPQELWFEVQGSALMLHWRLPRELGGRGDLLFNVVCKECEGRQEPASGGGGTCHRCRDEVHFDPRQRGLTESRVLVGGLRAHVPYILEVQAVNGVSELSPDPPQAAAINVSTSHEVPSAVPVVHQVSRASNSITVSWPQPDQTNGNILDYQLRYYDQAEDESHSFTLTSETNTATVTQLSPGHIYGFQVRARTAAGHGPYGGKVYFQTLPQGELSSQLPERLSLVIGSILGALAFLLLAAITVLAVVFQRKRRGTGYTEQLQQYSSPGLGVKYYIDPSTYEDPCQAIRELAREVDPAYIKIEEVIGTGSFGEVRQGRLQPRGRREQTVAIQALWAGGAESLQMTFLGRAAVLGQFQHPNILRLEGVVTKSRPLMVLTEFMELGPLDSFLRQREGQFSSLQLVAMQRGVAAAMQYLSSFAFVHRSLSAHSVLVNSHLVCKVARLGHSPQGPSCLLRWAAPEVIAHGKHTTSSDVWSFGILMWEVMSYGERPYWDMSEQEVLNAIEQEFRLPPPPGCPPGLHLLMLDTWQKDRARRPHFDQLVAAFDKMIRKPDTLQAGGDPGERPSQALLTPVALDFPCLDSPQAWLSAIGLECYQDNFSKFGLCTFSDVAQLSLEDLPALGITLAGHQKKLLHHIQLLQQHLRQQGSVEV


How the values were obtained:
[1] = target: T1, human LRRC15 expressed on cells; test: flow cytometry, transfected HEK293
[2] = target: T1, human LRRC15 expressed on cells; test: flow cytometry, transfected HEK293; TPP-12942, first of the three values listed 'respectively'
[3] = target: T2, Ephrin type-B receptor 6 (EPHB6) on …; test: flow cytometry, live transfected HEK293 cells
[4] = target: T2, Ephrin type-B receptor 6 (EPHB6) on …; test: flow cytometry, transfected HEK293, 0 µg/ml
[5] = target: T2, Ephrin type-B receptor 6 (EPHB6) on …; test: flow cytometry, transfected HEK293, 0.1 µg/ml
[6] = target: T2, Ephrin type-B receptor 6 (EPHB6) on …; test: flow cytometry, transfected HEK293, 0.5 µg/ml
[7] = target: T2, Ephrin type-B receptor 6 (EPHB6) on …; test: flow cytometry, transfected HEK293, 2.5 µg/ml
[8] = target: T2, Ephrin type-B receptor 6 (EPHB6) on …; test: flow cytometry, transfected HEK293, 0.02 µg/ml
[9] = target: T2, Ephrin type-B receptor 6 (EPHB6) on …; test: flow cytometry, transfected HEK293, 12.5 µg/ml
[10] = target: T2, Ephrin type-B receptor 6 (EPHB6) on …; test: flow cytometry, transfected HEK293, 62.5 µg/ml
[11] = target: T2, Ephrin type-B receptor 6 (EPHB6) on …; test: flow cytometry, transfected HEK293, 0.004 µg/ml
[12] = target: T1, human LRRC15 expressed on cells; test: flow cytometry, transfected HEK293; TPP-17078, second of the three values listed 'respectively'
[13] = target: T1, human LRRC15 expressed on cells; test: flow cytometry, transfected HEK293; remark: listed apart in the source
[14] = target: T3, Cathepsin S (CTSS) on transfected HEK293 cells (human, UniProt P25774 115-331); test: flow cytometry, live transfected HEK293 cells
T3 construct: whole, on cells; also called CTSS/ZsGreen1
T3 sequence (P25774 115-331): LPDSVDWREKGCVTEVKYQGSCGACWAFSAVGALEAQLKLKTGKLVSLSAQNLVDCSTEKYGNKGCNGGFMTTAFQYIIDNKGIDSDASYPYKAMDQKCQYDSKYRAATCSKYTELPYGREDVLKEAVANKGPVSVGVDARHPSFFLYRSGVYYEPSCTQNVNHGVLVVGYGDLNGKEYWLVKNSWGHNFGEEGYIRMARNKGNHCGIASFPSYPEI

Binder | EC50 [1] | EC50 [2] | binding result [3] | Median Fluorescence AF647 [4] | Median Fluorescence AF647 [5] | Median Fluorescence AF647 [6] | Median Fluorescence AF647 [7] | Median Fluorescence AF647 [8] | Median Fluorescence AF647 [9] | Median Fluorescence AF647 [10] | Median Fluorescence AF647 [11] | EC50 [12] | EC50 [13] | binding result [14]
TPP-12942 (antibody, human IgG1, kappa, V domains shown, Prior art humanized IgG1 kappa antibody, used as comparator; also called huM25; huM25-hIgG1Kappa) VH: EVQLVQSGAEVKKPGASVKVSCKASGYKFSSYWIEWVKQAPGQGLEWIGEILPGSDTTNYNEKFKDRATFTSDTSINTAYMELSRLRSDDTAVYYCARDRGNYRAWFGYWGQGTLVTVSS VL: DIQMTQSPSSLSASVGDRVTITCRASQDISNYLNWYQQKPGGAVKFLIYYTSRLHSGVPSRFSGSGSGTDYTLTISSLQPEDFATYFCQQGEALPWTFGGGTKVEIKR | 1.4 µg/mL | 0.2 µg/mL | – | – | – | – | – | – | – | – | – | – | – | –
TPP-17078 (antibody, human IgG1, kappa, V domains shown, also called 438H-M308-H05-hIgGkappa) VH: EVQLVQSGAEVKKPGASVKVSCKASGYKFSSYWIEWVKQAPGQGLEWIGEILPGSDTTNYNEKFKDRATFTSDTSINTAYMELSRLRSDDTAVYYCARDRGNYRAWFGYWGQGTLVTVSS VL: DIQMTQSPSSLSASVGDRVTITCRASQSISSYLNWYQQKPGGAPKFLIYYASSLQSGVPSRFSGSGSGTDYTLTISSLQPEDFATYYCQQGFSLPWTFGGGTKVEIKR | – | – | – | 633 | 3190 | 3680 | 5480 | 2540 | 7970 | 14600 | 1780 | 0.15 µg/mL | – | –

The remaining lines, values ahead:

EC50 [1] | EC50 [2] | binding result [3] | Median Fluorescence AF647 [4] | Median Fluorescence AF647 [5] | Median Fluorescence AF647 [6] | Median Fluorescence AF647 [7] | Median Fluorescence AF647 [8] | Median Fluorescence AF647 [9] | Median Fluorescence AF647 [10] | Median Fluorescence AF647 [11] | EC50 [12] | EC50 [13] | binding result [14] | Binder
– | – | no binding (tested: up to 62.5 µg/ml) | 628 | 2810 | 3150 | 4150 | 1770 | 5390 | 9050 | 1250 | – | – | – | TPP-17421 (antibody, human IgG1, kappa, V domains shown, also called 438H-M306-C11-hIgG1Kappa) VH: EVQLVQSGAEVKKPGASVKVSCKASGYKFSSYWIEWVKQAPGQGLEWIGEILPGSDWTNYNEKFKDRATFTSDTSINTAYMELSRLRSDDTAVYYCARDRGNYRAWFQYWGQGTLVTVSS VL: DIQMTQSPSSLSASVGDRVTITCRASQSISSYLNWYQQKPGGAPKFLIYYASSLQSGVPSRFSGSGSGTDYTLTISSLQPEDFATYYCQQGLELPWTFGGGTKVEIKR
– | – | – | – | – | – | – | – | – | – | – | – | 0.26 µg/mL | no binding (tested: up to 62.5 µg/ml) | TPP-14389 (antibody, human IgG1, kappa, V domains shown, also called 13612-rec02-hIgG1Kappa) VH: EVQLLESGGGLVQPGGSLRLSCAASGFTFSGYMMSWVRQAPGKGLEWVSGIYPSPGYTYYADSVKGRFTISRDNSKNTLYLQMNSLRAEDTAVYYCAREKASDLFGSYSEALDYWGQGTLVTVSS VL: DIQMTQSPDSLSASVGDRVTITCRASQDVGSWLAWYQQKPGKAPKLLIFAASSLESGIPSRFSGSGSGTDFTLTISSLQPEDFATYYCQQANGFPLTFGGGTKVEIKR
